{
  "source": "patent US20240148866A1",
  "about": "(DENALI THERAPEUTICS, published 2024)",
  "binders": {"B1": {"name": "IgG:IDS fusion protein (anti-transferrin receptor antibody with an IDS enzyme linked to the C-terminus of each heavy chain) (antibody)", "heavy": "not shown", "light": "DIVMTQTPLSLSVTPGQPASISCRSSQSLVHSNGNTYLHWYLQKPGQSPQLLIYKVSNRFSGVPDRFSGSGSGTDFTLKISRVEAEDVGVYYCSQSTHVPWTFGQGTKVEIKRTVAAPSVFIFPPSDEQLKSGTASVVCLLNNFYPREAKVQWKVDNALQSGNSQESVTEQDSKDSTYSLSSTLTLSKADYEKHKVYACEVTHQGLSSPVTKSFNRGEC", "modifications": "formylglycine (fG) in place of the Cys in the IDS part in the form given as SEQ ID NO:18; glycans carry about 1.5-2.3 mol/mol M6P and about 15-16 mol/mol sialic acid per fusion protein", "notes": "Antibody-enzyme fusion with human IgG1 constant regions, expressed in ExpiCHO cells co-transfected with SUMF1"}},
  "key": {"[1]": {"target": "T1, biotinylated full-length human transferrin receptor (hTfR) (human, UniProt P02786 89-760, limits assumed, biotinylated (site not stated))", "T1 construct": "Printed as 'biotinylated full-length hTfR', immobilized on a streptavidin chip; also called full-length hTfR; full-length receptor", "T1 sequence (P02786 89-760 limits assumed)": "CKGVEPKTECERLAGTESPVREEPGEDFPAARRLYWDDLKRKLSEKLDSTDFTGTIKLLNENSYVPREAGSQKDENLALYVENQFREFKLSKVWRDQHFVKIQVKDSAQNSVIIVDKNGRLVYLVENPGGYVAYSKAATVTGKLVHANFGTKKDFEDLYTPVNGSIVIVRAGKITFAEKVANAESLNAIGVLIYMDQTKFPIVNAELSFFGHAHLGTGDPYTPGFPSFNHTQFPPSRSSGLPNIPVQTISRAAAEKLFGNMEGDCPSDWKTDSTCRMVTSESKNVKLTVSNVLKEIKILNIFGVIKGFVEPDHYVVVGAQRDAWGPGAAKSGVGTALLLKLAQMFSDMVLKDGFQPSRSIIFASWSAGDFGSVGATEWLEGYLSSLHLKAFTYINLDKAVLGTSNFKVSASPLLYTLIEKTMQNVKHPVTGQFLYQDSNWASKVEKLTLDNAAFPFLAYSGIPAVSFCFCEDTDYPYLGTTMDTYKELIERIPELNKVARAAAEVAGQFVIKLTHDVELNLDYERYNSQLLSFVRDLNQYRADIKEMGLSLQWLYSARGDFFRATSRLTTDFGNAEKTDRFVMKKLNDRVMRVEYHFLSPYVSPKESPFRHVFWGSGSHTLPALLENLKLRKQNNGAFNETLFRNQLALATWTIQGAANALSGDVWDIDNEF", "assay": "SPR (Biacore T200), biotinylated full-length hTfR on streptavidin chip, IgG:IDS injected, single-cycle kinetics; apparent (avid) affinity", "experimental": "(§1) The affinity of IgG:IDS for human transferrin receptor (hTfR) was determined by surface plasmon resonance on a Biacore™ T200 instrument using two methods, similar to previously described (Kariolis et al. 2020. Sci Transl Med 12(545):eaay1359). In Method 1, to evaluate monovalent TfR binding affinity, IgG:IDS was captured on a Protein A-coated Biacore™ Series S CM5 sensor chip and serial dilutions of the apical domain of hTfR (hTfR^apical) were injected over the captured sample. In Method 2, for evaluation of apparent hTfR binding affinity of IgG:IDS, biotinylated full-length hTfR was immobilized on a streptavidin-coated CM5 sensor chip, followed by injection of serial dilutions of IgG:IDS. For both methods, the single-cycle kinetics mode was used for sample injection (association time, 90 s; dissociation time, 600 s), and binding affinities were calculated using Biacore T200 Evaluation Software v3.0."}, "[2]": {"target": "T2, apical domain of human transferrin receptor (hTfR^apical) (human, UniProt P02786 198-378)", "T2 construct": "also called apical domain of hTfR", "T2 sequence (P02786 198-378 limits assumed)": "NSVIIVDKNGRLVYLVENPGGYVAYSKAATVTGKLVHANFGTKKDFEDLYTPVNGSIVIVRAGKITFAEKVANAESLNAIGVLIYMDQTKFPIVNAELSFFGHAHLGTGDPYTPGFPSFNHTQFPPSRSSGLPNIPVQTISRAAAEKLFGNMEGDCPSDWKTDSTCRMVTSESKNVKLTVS", "assay": "SPR (Biacore T200), IgG:IDS captured on Protein A chip, hTfR apical domain injected, single-cycle kinetics", "experimental": "as §1"}, "[3]": {"target": "T3, Fc fusion of the 9th domain of human cation independent mannose-6-phosphate receptor (ciM6PR; Uniprot P11717) (human, UniProt P11717 1225-1363, limits assumed)", "T3 construct": "domain: 9th domain; It was coated on ELISA plates at 1 ug/mL", "T3 sequence (P11717 1225-1363 limits assumed, one chain of several)": "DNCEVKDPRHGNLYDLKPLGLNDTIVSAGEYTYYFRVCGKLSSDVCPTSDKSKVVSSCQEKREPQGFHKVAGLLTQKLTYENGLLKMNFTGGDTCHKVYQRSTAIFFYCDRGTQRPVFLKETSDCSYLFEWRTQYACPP", "assay": "ELISA: plate coated with the Fc fusion of ciM6PR domain 9, IgG:IDS titrated, detection with biotinylated anti-IDS antibody and streptavidin-HRP, A450", "experimental": "ELISA plates were coated with an Fc fusion of the 9th domain of human cation independent mannose-6-phosphate receptor (ciM6PR; Uniprot P11717) at 1 μg/mL in PBS overnight at 4° C. The following day, the plate was washed three times with wash buffer (PBS with 0.02% Tween-20) and blocking buffer (PBS with 0.02% Tween-20 and 5% BSA) was added to each well. Blocking was carried out for 1 hour at room temperature after which the plate was washed three times, and IgG:IDS was added to the first column of the plate at a concentration of 25 nM. A 3-fold serial dilution was performed across the plate. Primary incubation of the binding reactions was carried out for one hour at room temperature. After binding, the plate was washed three times, and binding was detected using biotinylated anti-IDS antibody diluted to 0.0625 μg/mL in sample buffer. The plate was incubated with a detection antibody for one hour at room temperature and then washed three times. Streptavidin-HRP, diluted 1:50,000 in sample buffer, was then added to each well. The plate was incubated for 30 minutes at room temperature and then washed three times. The ELISA was developed using TMB reagent. The ELISA plate was read on a HighRes BioTek Synergy plate reader, where the absorbance at 450 nm was recorded."}},
  "data": [
    {"binder": "B1", "values": [
      {"measurement": "Kd", "setting": "[1]", "result": "~0.1", "unit": "nM"},
      {"measurement": "Kd", "setting": "[2]", "result": 2.6, "unit": "nM"},
      {"measurement": "EC50 (read off the curve)", "setting": "[3]", "result": "~0.08", "unit": "nM"}
    ]}
  ]
}
